In patent US20170233497A1 one finds EC50 (read off the curve) and fold higher binding efficiency to mouse FcRn compared to human FcRn data, which are given here for seven substances.

Read-outs that look alike come from different tables or passages of the source.

Assay [1] concerns the target recombinant extracellular domain of EGFR (UniProt P00533). In words: EGFR-coat/anti-7D8-idiotype sandwich ELISA; mixture after 25 mM 2-MEA, 90 min, 37 °C; axis = total antibody of the mixture.
Assay [2] deals with mouse FcRn (neonatal Fc receptor), biotinylated (mouse) (UniProt Q61559). In words: FcRn ELISA at pH 6.0.
Assay [3] addresses recombinant extracellular domain of EGFR (UniProt P00533). In words: EGFR-coat/anti-7D8-idiotype sandwich ELISA; mixture after 25 mM 2-MEA, 90 min, 37 °C; axis = total antibody of the mixture. This is another data set of the same source. Background: An ELISA detects its analyte on a solid surface through an enzyme-linked reagent.

Broadly, the EC50 (read off the curve) is the concentration needed to bring the measured effect to its halfway point. Take “IgG1-2F8-F405L+IgG4-7D8 (bispecific antibody)”: the 50% effective concentration (EC50 (read off the curve)) in assay [1] was found to be 0.3 µg/mL.

Take “IgG1-2F8-F405L+IgG4-7D8-CPPC (bispecific antibody)”: in assay [1], the EC50 (read off the curve) was found to be 0.3 µg/mL.

In the case of IgG1-2F8-ITL (antibody), in assay [2], the fold higher binding efficiency to mouse FcRn compared to human FcRn is 3 fold.

Take “IgG4-2F8 x IgG4-7D8 (bispecific antibody)”: the 50% effective concentration (EC50 (read off the curve)) in assay [3] worked out at 0.3 µg/mL; in assay [1], 0.4 µg/mL.

Turning to “IgG4-2F8+IgG4-7D8 (deglyc) (bispecific antibody)”, the concentration for a half-maximal effect (EC50 (read off the curve)) in assay [3] was determined as 0.4 µg/mL.

As for “IgG4-7D8-CPPC x IgG4-2F8 (bispecific antibody)”, in assay [1], the concentration for a half-maximal effect (EC50 (read off the curve)) is 0.3 µg/mL.

The substance “bispecific IgG1 generated from IgG1-2F8-ITL and IgG1-7D8-K409R (bispecific antibody)” came in with a fold higher binding efficiency to mouse FcRn compared to human FcRn in assay [2] of 3 fold.
